Laboratory results as given in patent publication US7893021B2, “Parathyroid hormone antagonists and uses thereof” (Scantibodies Laboratory, Inc., priority 1999, dated 2011).
Where “and” joins values, the source holds several entries; their conditions need not be identical. Equal values may be shown once. Entries after “also recorded” stand apart in the source; their conditions may differ.

B1: hPTH 7-84: Synthetic human PTH 7-84 fragment, an exemplary PTH antagonist, obtained from Bachem (peptide)
peptide: LMHNLGKHLNSMERVEWLRKKLQDVHNFVALGAPLAPRDAGSQRPRKKEDNVLVESHEKSLGEANKADVNVLTKAKSQ
B2: hPTH 1-84: Synthetic human PTH 1-84, the whole 84 amino acid parathyroid hormone (SEQ ID NO:1), PTH agonist, purchased from Bachem (peptide)
chain: SVSEIQLMHNLGKHLNSMERVEWLRKKLQDVHNFVALGAPLAPRDAGSQRPRKKEDNVLVESHEKSLGEANKADVNVLTKAKSQ

Columns and labels:
[1] = system: rats having hypoparathyroidism (parathyroid glands removed); assay: Serum calcium after i.v. injection in rats with parathyroid glands removed; type: in vivo, rat
From the text: The CAP rebound effect is believed to be the body's response to an administration of CIP. This response occurs when the parathyroid gland cells secrete CAP in an effort to return the CAP/CIP ratio to homeostasis with the pre-CIP administration levels. PTH antagonist administration is not accompanied by hypercalcemia and osteosarcoma, as with direct CAP administration. […] All of the rats had their parathyroid glands removed. Five rats received an i.v. injection of a saline control. The serum calcium of the control rats was measured and on average was lowered over time by about 0.18 mg/dl by virtue of a parathyroidectomy. Nine rats received an i.v. injection (10 μg/kg) of hPTH obtained from Bachem, AG of Bubendorf, Switzerland. The serum calcium of the hPTH rats was measured and on average was raised over time by about 0.65 mg/dl. Five rats received an equimolar i.v. injection of a PTH7-84 (an exemplary PTH antagonist) also obtained from Bachem, AG of Bubendorf, Switzerland. The serum calcium of the PTH antagonist rats was measured and on average was lowered over time by about 0.30 mg/dl. Finally, six rats received an i.v. injection comprised of hPTH (10 μg/kg) and an equimolar amount of PTH antagonist PTH7-84. The serum calcium of the hPTH/PTH antagonist rats was measured and on average remained substantially the same over time, raising only about 0.03 mg/dl.

[2] = system: ROS/17.2 cells; assay: cAMP production in osteoblastic cell line ROS/17.2; type: cell-based, rat; details: for intracellular cAMP: 10^-8 mol/L peptide, five-minute incubation, N=6, before treatment 18.1±1.25
Procedure: Osteoblastic cell line. To compare the biological effects of the two peptides (HPTH 1-84 and 7-84), intracellular cAMP production was measured in the rate osteosarcoma cell line ROS/17.2, which has an osteoblastic phenotype and is known to increase cAMP production in response to PTH. Cells were cultured in Ham's F12 media containing 10% fetal bovine serum. Cells were plated out in 12 well plates at a density of 30,000 cells per well and grown to confluence. Cells were washed three times with KHMS buffer at 37° C. (KCI 4.0 mmol/L, CaCl2 1.25 mmol/L, MgSO4 1.25 mmol/L, KH2PO4 1.2 mmol/L, HEPES 10 mmol/L, NaCl 100 mmol/L, NaHCO3 37 mmol/L, and glucose 10 mmol/L, pH 7.5). cAMP production was measured using 500 μL of KHMS buffer (37°) containing isobutyl-1 methylxantine (1BMX) 1.0 mmol/L and various concentrations (10^−11 to 10^−8 mol/L) of hPTH 1-84 or hPTH 7-84. After a five-minute incubation, 100 μL of 1.8 mol/L pechloric acid were added. After an additional five-minute incubation at room temperature, 100 μL of 3 mol/KHCO3 were added to neutralize the acid. Samples were centrifuged at 3000 rpm for 15 minutes, and the supernatants were assayed for cAMP [26].

[3] = system: parathyroidectomized (PTX) rats; assay: Calcemic response in parathyroidectomized (PTX) rats fed a 0.02% calcium diet; type: in vivo, rat; details: hPTH 7-84 given 10 minutes prior to each hPTH 1-84 injection, 1:1 molar ratio, N=6
Procedure: Calcemic response. Normal female Sprague-Dawley rats weighing 225 to 250 g (Harlan, Indianapolis, Ind., USA) were parathyroidectomized (PTX) and fed a 0.02% calcium diet. Rats with a plasma calcium below 7.0 mg/dL after overnight fasting were included in the study. A 20 μg dose of hPTH 1-84 or 7-84 was given intraperitoneally to PTX rats in four doses of 5 μg each at 30-minute intervals (0, 30, 60, and 90 minutes). For control studies, the rats received vehicle (saline solution) alone. Blood was drawn via the tail at 0, 60, 90, and 120 minutes. For competition experiments, rats received an injection of hPTH 7-84 10 minutes prior to each injection of hPTH 1-84. The molar ratio of hPTH 7-84:hPTH 1-84 was 1:1.
Total plasma calcium levels were determined using an atomic absorption spectrophotometer (model 110B; Perkin Elmer, Norwalk, Conn., USA). Plasma phosphorus levels were determined using an autoanalyzer (COBAS MIRA Plus; Roche, Newark, N.J., USA).

[4] = system: Normal female Sprague-Dawley rats; assay: Phosphaturic response (clearance studies: GFR and FEPO4) in rats; type: in vivo, rat; details: for glomerular filtration rate (GFR), hPTH 7-84 given with hPTH 1-84: hPTH 7-84 given five minutes prior to hPTH 1-84, molar ratio 4:1, N=8, control period 2.1±0.1
Procedure: Phosphaturic response. Normal female Sprague-Dawley rats weighing 225 to 250 g were prepared for clearance studies under light anesthesia. Polyethylene catheters (PE50) were placed in the femoeral artery for the collection of blood and measurement of blood pressure (Blood Pressure Analyzer; Micro-Medic, Inc., Louisville, Ky., USA), in the femoral vein for infusion and in the bladder for the collection of urine. Rats were placed in Plexiglass holders and allowed to recover from the effect of the anesthetic for one hour. A priming dose (0.6 mL) of chemical inulin in saline was administered over a period of three minutes to achieve a plasma inulin level between […]. A solution of saline containing inulin to maintain this level and calcium gluconate to deliver 0.5 mg. calcium was infused at the rate of 0.03 mL/min. After equilibration, a total of four 30-minute urine collections was obtained.
To assess the effect of hPTH 1-84 on phosphate excretion, urine was collected during two control periods, after which rats received a priming bolus of 1.8 μg of HPTH 1-84 followed by a sustained infusion that delivered a total of 8.2 μg of I-PTH. After an equilibration period of 20 minutes, two 30-minute urine collections were obtained. In competition experiments, HPTH 7-84 was given five minutes prior to hPTH 1-84 at a molar ratio of 4:1.
Blood samples and blood pressure measurements were recorded at the beginning and end of the baseline period, at the beginning of the PTH infusion period, and at the end of the study. The concentration of inulin in plasma and urine was determined by the method of Führ, Kaczmarczyk, and Kruttgen, Klin Wochenschr, 33:729-730 (1955). The estimation of the glomerular filtration rate (GFR) by inulin clearance and the calculation of the fractional urinary excretion rate of phosphorus (FEP04) were performed in the standard fashion. Blood samples were centrifuged, and plasma phosphorus and calcium concentrations were measured.

Molecule	serum calcium lowered over time (average) ([1]; i.v. injection of PTH7-84 alone, equimolar to 10 μg/kg hPTH, five rats, saline control lowered about 0.18)	serum calcium raised over time (average), co-injection with hPTH ([1]; i.v. injection of hPTH (10 μg/kg) and an equimolar amount of PTH7-84, six rats)	antagonist property compared with PTH3-34 ([1]; prevention of the hPTH-induced serum calcium increase in rats)	intracellular cAMP [2]	decrease of the calcemic response induced by hPTH 1-84 [3] [%]	decrease of the increase in FEP04 (phosphaturia) induced by hPTH 1-84 ([4]; hPTH 7-84 coadministered with hPTH 1-84, molar ratio 4:1) [%]	glomerular filtration rate (GFR), hPTH 7-84 given with hPTH 1-84 [4] [mL/min]	glomerular filtration rate (GFR), hPTH 7-84 given with hPTH 1-84 ([4]; listed as 7-84 PTH)	serum calcium raised over time (average) ([1]; i.v. injection 10 μg/kg hPTH alone, nine rats, saline control lowered about 0.18)	cAMP production, dose dependence ([2]; 10^-11 to 10^-8 mol/L peptide)	glomerular filtration rate (GFR) ([4]; rats infused with hPTH 1-84 alone, N=10, control period 1.8±0.3) [mL/min]	fractional excretion of phosphate (FEP04) ([4]; rats infused with hPTH 1-84 alone, N=10, control period 11.9±2.4) [%]
B1	about 0.30 mg/dl	about 0.03 mg/dl	much more potent in its antagonist property than the previously reported antagonist PTH3-34	no effect	94	50.2	2.6 ± 0.2	significant increase				
B2				738±4.13 nmol/well and 738±4.1 nmol/well					about 0.65 mg/dl	increased cAMP production in a does-dependent manner; also recorded: increased cAMP production in a dose-dependent manner	1.8 ± 0.1	27.7±2.4
